Laboratory results: paper PMC7585203

Target: FAM-LIG1(118–130)K126me2 peptide (human)
Assay: fluorescence polarisation; FAM-labelled peptide with GST-tagged domains or MBP-tagged full-length UHRF1; as described in ref. 4, plotted as change in anisotropy

For “GST-tagged chromodomain Y-like protein isoform 2 (CDYL1b) chromodomain (domain or fragment)”, the ratio of its dissociation constant to that of the UHRF1 TTD was 70 fold.
